Laboratory results published in doi:10.1101/2022.11.10.515925 (bioRxiv, 2022).

B1: KIF20A 55-665 Δ(535-549) (dimeric motor, shortened neck linker) (domain or fragment, mouse, UniProt P97329 55-665, looked up)
chain: ALLEDTSEKVKVYLRIRPFLTSELDRQEDQGCVCIENTETLVLQAPKDSFALKSNERGVGQATHKFTFSQIFGPEVGQVAFFNLTMKEMVKDVLKGQNWLIYTYGVTNSGKTYTIQGTSKDAGILPQSLALIFNSLQGQLHPTPDLKPLLSNEVIWLDSKQIRQEEMKKLSLLIGGLQEEELSTSVKKRVHTESRIGASNSFDSGVAGLSSTSQFTSSSQLDETSQLWAQPDTVPVSVPADIRFSVWISFFEIYNELLYDLLEPPSHQHKRQTLRLCEDQNGNPYVKDLNWIHVRDVEEAWKLLKVGRKNQSFASTHMNQQSSRSHSIFSIRILHLQGEGDIVPKISELSLCDLAGSERCKHQKSGERLKEAGNINTSLHTLGRCIAALRQNQQNRSKQNLIPFRDSKLTRVFQGFFTGRGRSCMIVNVNPCASTYDETLHAAKFSALASQLVHAPPVHLGIPSLHSFIKKHSPQVGPGLDEADVSVYGKEELLQVVEAMKALLLKERQEKLQLEIQLREEICNEMVEQMQQREQWCSERLDNQKELMEELYEEKLKILKESLTTFYQEQIQERDEKIEELETLLQEAKQQPAAQQ
B2: KIF20A 55-665 Δ(518-549) (dimeric motor, shortened neck linker) (domain or fragment, mouse, UniProt P97329 55-665, looked up)
chain: ALLEDTSEKVKVYLRIRPFLTSELDRQEDQGCVCIENTETLVLQAPKDSFALKSNERGVGQATHKFTFSQIFGPEVGQVAFFNLTMKEMVKDVLKGQNWLIYTYGVTNSGKTYTIQGTSKDAGILPQSLALIFNSLQGQLHPTPDLKPLLSNEVIWLDSKQIRQEEMKKLSLLIGGLQEEELSTSVKKRVHTESRIGASNSFDSGVAGLSSTSQFTSSSQLDETSQLWAQPDTVPVSVPADIRFSVWISFFEIYNELLYDLLEPPSHQHKRQTLRLCEDQNGNPYVKDLNWIHVRDVEEAWKLLKVGRKNQSFASTHMNQQSSRSHSIFSIRILHLQGEGDIVPKISELSLCDLAGSERCKHQKSGERLKEAGNINTSLHTLGRCIAALRQNQQNRSKQNLIPFRDSKLTRVFQGFFTGRGRSCMIVNVNPCASTYDETLHAAKFSALASQLVHAPPVHLGIPDEADVSVYGKEELLQVVEAMKALLLKERQEKLQLEIQLREEICNEMVEQMQQREQWCSERLDNQKELMEELYEEKLKILKESLTTFYQEQIQERDEKIEELETLLQEAKQQPAAQQ
B3: KIF20A 55-665 (dimeric motor construct) (domain or fragment, mouse, UniProt P97329 55-665, looked up)
chain: ALLEDTSEKVKVYLRIRPFLTSELDRQEDQGCVCIENTETLVLQAPKDSFALKSNERGVGQATHKFTFSQIFGPEVGQVAFFNLTMKEMVKDVLKGQNWLIYTYGVTNSGKTYTIQGTSKDAGILPQSLALIFNSLQGQLHPTPDLKPLLSNEVIWLDSKQIRQEEMKKLSLLIGGLQEEELSTSVKKRVHTESRIGASNSFDSGVAGLSSTSQFTSSSQLDETSQLWAQPDTVPVSVPADIRFSVWISFFEIYNELLYDLLEPPSHQHKRQTLRLCEDQNGNPYVKDLNWIHVRDVEEAWKLLKVGRKNQSFASTHMNQQSSRSHSIFSIRILHLQGEGDIVPKISELSLCDLAGSERCKHQKSGERLKEAGNINTSLHTLGRCIAALRQNQQNRSKQNLIPFRDSKLTRVFQGFFTGRGRSCMIVNVNPCASTYDETLHAAKFSALASQLVHAPPVHLGIPSLHSFIKKHSPQVGPGLEKEDKADSDLEDSPEDEADVSVYGKEELLQVVEAMKALLLKERQEKLQLEIQLREEICNEMVEQMQQREQWCSERLDNQKELMEELYEEKLKILKESLTTFYQEQIQERDEKIEELETLLQEAKQQPAAQQ
B4: KIF20A 1-665 (dimeric motor construct) (domain or fragment, mouse, UniProt P97329 1-665, looked up)
chain: MSHRILSPPAGLLSDEDVVDSPILESTAADLRSVVRKDLLSDCSVISASLEDKQALLEDTSEKVKVYLRIRPFLTSELDRQEDQGCVCIENTETLVLQAPKDSFALKSNERGVGQATHKFTFSQIFGPEVGQVAFFNLTMKEMVKDVLKGQNWLIYTYGVTNSGKTYTIQGTSKDAGILPQSLALIFNSLQGQLHPTPDLKPLLSNEVIWLDSKQIRQEEMKKLSLLIGGLQEEELSTSVKKRVHTESRIGASNSFDSGVAGLSSTSQFTSSSQLDETSQLWAQPDTVPVSVPADIRFSVWISFFEIYNELLYDLLEPPSHQHKRQTLRLCEDQNGNPYVKDLNWIHVRDVEEAWKLLKVGRKNQSFASTHMNQQSSRSHSIFSIRILHLQGEGDIVPKISELSLCDLAGSERCKHQKSGERLKEAGNINTSLHTLGRCIAALRQNQQNRSKQNLIPFRDSKLTRVFQGFFTGRGRSCMIVNVNPCASTYDETLHAAKFSALASQLVHAPPVHLGIPSLHSFIKKHSPQVGPGLEKEDKADSDLEDSPEDEADVSVYGKEELLQVVEAMKALLLKERQEKLQLEIQLREEICNEMVEQMQQREQWCSERLDNQKELMEELYEEKLKILKESLTTFYQEQIQERDEKIEELETLLQEAKQQPAAQQ
B5: KIF20A 25-665 (dimeric motor construct) (domain or fragment, mouse, UniProt P97329 25-665, looked up)
chain: ESTAADLRSVVRKDLLSDCSVISASLEDKQALLEDTSEKVKVYLRIRPFLTSELDRQEDQGCVCIENTETLVLQAPKDSFALKSNERGVGQATHKFTFSQIFGPEVGQVAFFNLTMKEMVKDVLKGQNWLIYTYGVTNSGKTYTIQGTSKDAGILPQSLALIFNSLQGQLHPTPDLKPLLSNEVIWLDSKQIRQEEMKKLSLLIGGLQEEELSTSVKKRVHTESRIGASNSFDSGVAGLSSTSQFTSSSQLDETSQLWAQPDTVPVSVPADIRFSVWISFFEIYNELLYDLLEPPSHQHKRQTLRLCEDQNGNPYVKDLNWIHVRDVEEAWKLLKVGRKNQSFASTHMNQQSSRSHSIFSIRILHLQGEGDIVPKISELSLCDLAGSERCKHQKSGERLKEAGNINTSLHTLGRCIAALRQNQQNRSKQNLIPFRDSKLTRVFQGFFTGRGRSCMIVNVNPCASTYDETLHAAKFSALASQLVHAPPVHLGIPSLHSFIKKHSPQVGPGLEKEDKADSDLEDSPEDEADVSVYGKEELLQVVEAMKALLLKERQEKLQLEIQLREEICNEMVEQMQQREQWCSERLDNQKELMEELYEEKLKILKESLTTFYQEQIQERDEKIEELETLLQEAKQQPAAQQ

Molecular target: the molecule itself
Assay: SEC-MALS

Stoichiometry N, 2:
B1, B2, B3, B4, B5
